Source: publication PMC3140635 (2012)

B1: Glycophorin A TM domain (SNGpATM) TMD (protein)
chain: GERVQLAHHFSEPEITLIIFGVMAGVIGTILLISYGIRRLIKKSPSDVKPLPSPDTDVPLSSVEIENPETSDQ
B2: Glycophorin A TM domain (SNGpATM) TMD (protein)
chain: B1 chain
modifications: E. coli inner membrane proteins at mass ratio 1.0

Columns and labels:
[1] = biological target: the molecule itself; assay: steric trap, PG/PC
[2] = biological target: the molecule itself; assay: steric trap, DM micelles
[3] = biological target: the molecule itself; assay: steric trap, PC bilayers, L/P 1400-1600, no IMP
[4] = biological target: the molecule itself; assay: steric trap, PS/PC
[5] = biological target: the molecule itself; assay: steric trap, PE/PG/PC
[6] = biological target: the molecule itself; assay: steric trap, PG/PC; remark: listed apart in the source
[7] = biological target: the molecule itself; assay: steric trap, lysoPC/PC
[8] = biological target: the molecule itself; assay: steric trap, E. coli lipid bilayers, L/P 1500
[9] = biological target: the molecule itself; assay: steric trap
[10] = biological target: the molecule itself; assay: steric trap, PG/PC; remark: listed apart in the source
[11] = biological target: the molecule itself; assay: steric trap, PC bilayers, L/P 1000
[12] = biological target: the molecule itself; assay: steric trap, PE/PC
[13] = biological target: B1; assay: steric trap, PC bilayers, L/P 1400-1600

Binder: B1
Kd [1]: 32 nM
Kd [2]: 170 nM
Kd [3]: 0.003 nM
Kd [4]: 25 nM
Kd [5]: 5.1 nM
Kd [6]: 47 nM
Kd [7]: 6 nM
Kd [8]: 10 nM
Kd [9]: 11 nM
Kd [10]: 14 nM
Kd [11]: 0.0015 nM
Kd [12]: 0.00021 nM

Binder: B2
Kd [13]: 9.2 nM
